According to doi:10.1101/787473 (2019):

Target: full length human importin β (KPNB1), expressed from pET30a-WT Importin β (pKW485) (human, UniProt Q14974 1-876)
Assay: FRET; displacement of importin β-bound Rango sensor

full length human importin β (KPNB1), expressed from pET30a-WT Importin β (pKW485), sequence (Q14974 whole entry): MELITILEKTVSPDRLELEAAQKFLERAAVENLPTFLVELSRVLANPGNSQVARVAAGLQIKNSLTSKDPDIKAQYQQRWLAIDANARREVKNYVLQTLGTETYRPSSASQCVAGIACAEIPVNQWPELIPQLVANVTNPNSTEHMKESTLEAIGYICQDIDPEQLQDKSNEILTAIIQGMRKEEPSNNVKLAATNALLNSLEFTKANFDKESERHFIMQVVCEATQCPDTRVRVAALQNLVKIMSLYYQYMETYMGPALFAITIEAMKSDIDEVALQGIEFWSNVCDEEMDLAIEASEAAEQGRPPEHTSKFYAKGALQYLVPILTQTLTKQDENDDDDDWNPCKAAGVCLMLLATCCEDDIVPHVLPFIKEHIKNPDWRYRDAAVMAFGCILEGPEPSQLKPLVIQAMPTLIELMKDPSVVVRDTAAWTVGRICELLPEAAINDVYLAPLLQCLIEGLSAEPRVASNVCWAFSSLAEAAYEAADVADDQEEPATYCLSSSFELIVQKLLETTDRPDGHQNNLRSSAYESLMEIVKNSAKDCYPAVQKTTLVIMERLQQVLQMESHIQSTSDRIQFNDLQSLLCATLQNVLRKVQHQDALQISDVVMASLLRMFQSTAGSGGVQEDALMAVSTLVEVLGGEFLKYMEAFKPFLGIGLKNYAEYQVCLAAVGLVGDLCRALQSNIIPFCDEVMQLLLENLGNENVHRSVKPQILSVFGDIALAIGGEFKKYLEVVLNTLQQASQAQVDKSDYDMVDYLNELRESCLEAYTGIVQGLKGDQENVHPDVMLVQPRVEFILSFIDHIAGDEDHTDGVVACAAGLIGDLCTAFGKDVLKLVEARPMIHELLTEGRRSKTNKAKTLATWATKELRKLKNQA

Row | Kd [nM] | Binder
1 | 17.4 | GRGRGRGRGRGRGRGRGRGRKC
2 | 8.2 | PRPRPRPRPRPRPRPRPRPRKC
